We go through one substance from doi:10.1101/2021.12.01.470822.

In general, Kd refers to the concentration at which binding is half-saturated.

This assay deals with ABD1 of PLS2 (human) (UniProt P13796). The experiment in a line: fluorescence polarisation.
Chain of ABD1 of PLS2 (human) (P13796 98-375): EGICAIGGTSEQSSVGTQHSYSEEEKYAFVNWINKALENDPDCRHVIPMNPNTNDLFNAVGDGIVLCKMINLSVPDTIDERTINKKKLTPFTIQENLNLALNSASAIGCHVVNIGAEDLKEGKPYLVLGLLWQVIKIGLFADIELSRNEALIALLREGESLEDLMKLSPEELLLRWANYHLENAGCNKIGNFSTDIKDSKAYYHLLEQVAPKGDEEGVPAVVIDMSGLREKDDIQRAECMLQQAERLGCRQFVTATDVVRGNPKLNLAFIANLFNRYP

With “ABD2 of PLS2 with S406E (from UniProt P13796 1-627) (domain or fragment)”, the Kd came to 2000 nM.
